Reference: the DeepSol protein solubility set

Test: soluble on expression in E. coli; label from the status in PepcDB or PDB records

Row | Sequence | soluble on expression in E. coli
1 | MSGETTRLTEPQLRELAARGAAELDGATATDMLRWTDETFGDIGGAGGGVSGHRGWTTCNYVVASNMADAVLVDLAAKVRPGVPVIFLDTGYHFVETIGTRDAIESVYDVRVLNVTPEHTVAEQDELLGKDLFARNPHECCRLRKVVPLGKTLRGYSAWVTGLRRVDAPTRANAPLVSFDETFKLVKVNPLAAWTDQDVQEYIADNDVLVNPLVREGYPSIGCAPCTAKPAEGADPRSGRWQGLAKTECGLHAS | soluble
2 | MTKLVKINYPNIDEDLYYVKLENGLTVYFIKKIGFLEKTAMLTVGFGSLDNKLTVDDESRDAPAGIAHFLEHKLFEDESGGDISLKFTQLGAETNAFTTFNQTSFFFSTASKFQENLELLQYFVLSANITDESVSREKKIIGQEIDMYQDDADYRAYSGILQNLFPKTSLANDIAGSKASIQKITKILLETHHTYFYQPTNMSLFIVGDIDIDETFLAIQRFQTTLSYPDRKRVTVDPLHYYPVIKSSSVDMDVTTAKLVVGFRGYLTLTQHSLLTYRIALKLFLSMLIGWTSKIYHTLYEDGKIDDSFDVDVEIHHNFQFVLISLDTPEPIAMSNYIRQKLATIKISKEFTNEHLNLLKKEMYGDFIQSLDSIEHLTHQFSLYLSDSDKETYFDIPKIIERLTLKDVVTIGKAFFEKADASDFTVFPK | not soluble
3 | NDVKRALEVEEINKLLNEVPLKRLPEDLVRCRVWANLMFQLRGMPFVDLAFLHKSDLKGNTLSYRRHKTGGQMIVDIPPTAMELIRQYQNTDCNSPYLFPILSGTKTGEELYIEYQQALRIMNYNLGRLARRCGVITKVSSYTTRHTWATLAKYCNFSEQLICEAFGHSSVKVTETYLKNFKYEEIKKANDAI | not soluble
4 | SAALAGVFVWDEERIQEEELQRSINEMKRLEEMSNMFQSSGVQHHPPEPKAQTEGNEDSEGKEQRWEMVMDKKHFKLWRRPITGTHLYQYRVFGTYTDVTPRQFFNVQLDTEYRKKWDALVIKLEVIERDVVSGSEVLHWVTHFPYPMYSRDYVYVRRYSVDQENNMMVLVSRAVEHPSVPESPEFVRVRSYESQMVIRPHKSFDENGFDYLLTYSDNPQTVFPRYCVSWMVSSGMPDFLEKLHMATLKAKNMEIKVKDYISAKPLEMSSEAKATSQSSERKNEGSCGPARIEYA | soluble
5 | MEAKTMKDMQKEVDAYIGQFKEGYFSPLAMMARLTEEMGELAREVNHYYGEKPKKTTEKERSIEEELGDVLFVMICMANSLNIDLETAHNIVMNKFNTRDKDRWTRIDEGEKE | not soluble
6 | DEAMVKIEKQEIVEHLSENSLLVQLKYAGASTDEPLLNELYKHYQVMANILYGNIEILDGTPVGELVVVLSGEKAALAGAQEAIRQAGVQLKVLKGVQ | not soluble
7 | MNKFVKSLLVAGSVAALAACSSSNNDAAGNGAAQTFGGYSVADLQQRYNTVYFGFDKYDITGEYVQILDAHAAYLNATPAAKVLVEGNTDERGTPEYNIALGQRRADAVKGYLAGKGVDAGKLGTVSYGEEKPAVLGHDEAAYSKNRRAVLAY | soluble
8 | GHHHHHHEAIAKRLDACQDQLLELYEENSIDIHKHIMHWKCIRLESVLLHKAKQMGLSHIGLQVVPPLTVSETKGHNAIEMQMHLESLAKTQYGVEPWTLQDTSYEMWLTPPKRCFKKQGNTVEVKFDGCEDNVMEYVVWTHIYLQDNDSWVKVTSSVDAKGIYYTCGQFKTYYVNFNKEAQKYGSTNHWEVCYGSTVICSPASVSSKKKK | soluble
9 | MSLARHRGKTEKLYVIPLGGLGEIGKNCMVVQYGDDIIVIDAGLAFPEEEMLGIDIVIPDFTYLLENREKVRGILITHGHEDHIGAVAYLLRNINIPVYATRLTLGLIEGKLAEMGMKLPAESKAVRAGDQVKLGPFTCEFIRVNHSIPDACAIAVTTPVGTILHTGDFKFDQTPIDGEFADYRRLTELGKRGILALLSDSTNAERPGYTPSERSVRPNMERVFREAKGRILMATFASNVHRIQQAIELAAEMGKKVAVVGRSMENTVRIALELGYLNVPEGTMVTVDELRRVPLNQQVILTTGSQGEPMAALSRMAVNDHKAIELYPGDTVLFAATAIPGNEKSVARTVNNLYRRGAEVIYDRSAGVHVSGHASQEEQKLMINLTRPKFFVPIHGEYRMLLKHKQLAEACGIPSENILIGENGTIFEFTRNSAQITGKVTSGQVLVDGLGVGDVGNIVLRDRKQLAQEGILIVVVAVDREEGTIVGGPDMVSRGFVYVRESEGLLDEAKERVKRALADQMQRGLPEWAVLKSSIRDVLSKYLYDKTHRRPMILPIIIEIEGHHHHHH | soluble
